This note sets out measurements from patent CN114106162A (ANYUAN MEDICINE SCIENCE AND TECH SHANGHAI LIMITED COMPANY, dated 2022).

The target of assay [1] is 刺突S蛋白-鼠Fc融合蛋白(S-mFc) (SARS-CoV-2; mouse, UniProt P0DTC2 14-1213). Briefly: FACS competition: antibody blocks binding of S-mFc to 293T-ACE2 cells.
Assay [2] addresses T1, SARS-CoV-2 S1蛋白 (ACRO Biosystems) (SARS-CoV-2, UniProt P0DTC2 16-685).
T1 construct: domain: S1
Briefly: competition ELISA, S1 coated, HRP-hACE2-Fc as competitor.

B1: 鼠源单克隆抗体S1B-82-5 (antibody, V domains shown)
VH: EVILVESGGGLVKPGGSLKLSCAASGFTFSSYAMSWIRQTPEKRLEWGATINSGGNFIYYPDSVKGRFTISRDNAKNTLYLQMSSLRSEDTAMYFCGRHSGNYVDSAMDYWGQGTSVTVSS
VL: QIVLTQSPAIMSASLGEEITLTCSASSSVSDMHWYQQKSGSSPKLLIYSTSNLASGVPSRFSGSGSGTFYSLTVSSVEAEDAADYYCHQWSTWTFGGGTKLEIK
notes: also called 鼠源抗体S1B-82-5; 鼠抗S1B-82-5
For B1, the IC50 in assay [1] came out at 0.016 µg/mL.

B2: 人源化抗体hS1B-82-5 (antibody, V domains shown)
VH: EVILSESGGGSVKPGGSLRLSCAASGFTFSSYAMSWIRQAPGKRLEWGSTINSGGNFIYYPDSVKGRFTISRDNAKNSLYLQMNSLRAEDTAVYFCGRHSGNYVDSAMDYWGQGTTVTVSS
VL: EIVLTQSPATLSVSPGERATLSCSASSSVSDMHWYQQKPGKSPKLLIYSTSNLASGVPSRFSGSGSGTEYTLTISSLQPEDVATYYCHQWSTWTFGGGTKVEIKR
notes: also called 抗SARS-CoV-2 S1人源化抗体; 人源化单克隆抗体hS1B-82-5
Regarding B2, the IC50 in assay [1] worked out at 0.0193 µg/mL. In assay [2], this molecule showed an EC50 of 0.166 µg/mL.

A word on the IC50: it is the midpoint of a concentration-inhibition curve. By EC50 is commonly meant the concentration at which the effect is half-maximal. A low value points to a more potent agent.
